Results published in patent publication US20030228627.

Biological target: Full-length human Flag-tagged p53 (native, unacetylated) (UniProt P04637)

Full-length human histidine-tagged p300 was tested, and the “acetylation of p53 by p300 in the presence of 3H-acetyl CoA (electrophoresis, fluorography)” value was “p300 efficiently acetylated p53”.
